{"source": "paper PMC7952133", "key": {"[1]": {"target": "HIV-1 myristoylated matrix (MA) A45E mutant protein (HIV-1 (pNL4-3 strain))", "test": "AUC; sedimentation equilibrium, 22,000, 26,000 and 30,000 rpm, 20 °C, pH 5.5, 50 mM sodium phosphates, 100 mM NaCl, 2 mM TCEP; global fit to a monomer–trimer equilibrium model (monomers to trimer), monomer mass 15.6 kDa and n = 3 fixed"}, "[2]": {"target": "HIV-1 myristoylated matrix (MA) L75G mutant protein (HIV-1 (pNL4-3 strain))", "test": "AUC; sedimentation equilibrium, 22,000, 26,000 and 30,000 rpm, 20 °C, pH 5.5, 50 mM sodium phosphates, 100 mM NaCl, 2 mM TCEP; global fit to a monomer–trimer equilibrium model (monomers to trimer), monomer mass 15.6 kDa and n = 3 fixed"}, "[3]": {"target": "HIV-1 myristoylated matrix (MA) Q63R mutant protein (HIV-1 (pNL4-3 strain))", "test": "AUC; sedimentation equilibrium, 22,000, 26,000 and 30,000 rpm, 20 °C, pH 5.5, 50 mM sodium phosphates, 100 mM NaCl, 2 mM TCEP; global fit to a monomer–trimer equilibrium model (monomers to trimer), monomer mass 15.6 kDa and n = 3 fixed"}, "[4]": {"target": "HIV-1 myristoylated matrix (MA) T70R mutant protein (HIV-1 (pNL4-3 strain))", "test": "AUC; sedimentation equilibrium, 22,000, 26,000 and 30,000 rpm, 20 °C, pH 5.5, 50 mM sodium phosphates, 100 mM NaCl, 2 mM TCEP; global fit to a monomer–trimer equilibrium model (monomers to trimer), monomer mass 15.6 kDa and n = 3 fixed"}, "[5]": {"target": "HIV-1 myristoylated matrix (MA) protein, wild type (HIV-1 (pNL4-3 strain))", "test": "AUC; sedimentation equilibrium, 22,000, 26,000 and 30,000 rpm, 20 °C, pH 5.5, 50 mM sodium phosphates, 100 mM NaCl, 2 mM TCEP; global fit to a monomer–trimer equilibrium model (monomers to trimer), monomer mass 15.6 kDa and n = 3 fixed"}, "[6]": {"target": "HIV-1 unmyristoylated matrix Q63R mutant protein (HIV-1 (pNL4-3 strain))", "test": "crystal structure; hanging-drop vapor diffusion, 40% PEG 400, 0.1 M sodium acetate (pH 4), 50 mM lithium sulfate; protein at 20 mg/ml; two crystal forms; molecular replacement with PDB 1HIW"}}, "data": [{"substance": "HIV-1 myristoylated matrix (MA) A45E mutant protein (natural protein)", "values": [{"measurement": "Ka", "setting": "[1]", "value": "2.5e+07", "unit": "M⁻¹"}, {"measurement": "stoichiometry N", "setting": "[1]", "value": 3}]}, {"substance": "HIV-1 myristoylated matrix (MA) L75G mutant protein (natural protein)", "values": [{"measurement": "Ka", "setting": "[2]", "value": "1e+07", "unit": "M⁻¹"}, {"measurement": "stoichiometry N", "setting": "[2]", "value": 3}]}, {"substance": "HIV-1 myristoylated matrix (MA) Q63R mutant protein (natural protein)", "values": [{"measurement": "Ka", "setting": "[3]", "value": "2e+07", "unit": "M⁻¹"}, {"measurement": "stoichiometry N", "setting": "[3]", "value": 3}]}, {"substance": "HIV-1 myristoylated matrix (MA) T70R mutant protein (natural protein)", "values": [{"measurement": "Ka", "setting": "[4]", "value": "2.8e+07", "unit": "M⁻¹"}, {"measurement": "stoichiometry N", "setting": "[4]", "value": 3}]}, {"substance": "HIV-1 myristoylated matrix (MA) protein, wild type (natural protein)", "values": [{"measurement": "Ka", "setting": "[5]", "value": "2e+07", "unit": "M⁻¹"}, {"measurement": "stoichiometry N", "setting": "[5]", "value": 3}]}, {"substance": "HIV-1 unmyristoylated matrix Q63R mutant protein (natural protein)", "values": [{"measurement": "stoichiometry N", "setting": "[6]", "value": 3}]}]}
